Results: publication PMC3636079, “Determinants at the N- and C-termini of Gα12 required for activation of Rho-mediated signaling” (Journal of Molecular Signaling, 2013)

Tests used:
[1] = biological target: T1, GST fusion of amino acids 1-252 of p115RhoGEF (GST-p115-RH) (UniProt Q92888 1-252); test: pull-down; GST fusion (or GST alone) immobilised on glutathione-sepharose; HEK293 detergent-soluble extract diluted to 0.05% polyoxyethylene-10-lauryl ether in 50 mM HEPES pH 7.5, 1 mM EDTA, 3 mM dithiothreitol, 10 mM MgSO4; about 2 h at 4°C; three washes; immunoblot with anti-Gα12 or anti-myc; band intensities given as pulldown:load ratio; conditions: one partner purified
T1 construct: p115RhoGEF, N-terminal 252 amino acids holding the RH domain; subcloned by PCR from a plasmid with an N-terminal myc tag on p115RhoGEF 1-252; also called RGS
T1 sequence (looked up): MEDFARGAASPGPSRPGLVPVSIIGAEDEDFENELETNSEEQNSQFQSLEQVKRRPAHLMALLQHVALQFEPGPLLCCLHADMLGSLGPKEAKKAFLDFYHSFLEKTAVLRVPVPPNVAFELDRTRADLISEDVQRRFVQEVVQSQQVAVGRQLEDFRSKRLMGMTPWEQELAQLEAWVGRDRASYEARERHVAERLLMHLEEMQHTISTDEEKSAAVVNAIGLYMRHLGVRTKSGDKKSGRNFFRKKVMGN

[2] = biological target: T2, GST fusion of amino acids 320-606 of LARG (GST-LARG-RH) (UniProt Q9NZN5 320-606); test: as above; conditions: one partner purified
T2 construct: leukemia-associated RhoGEF (LARG), RGS-homology (RH) domain, amino acids 320-606; plasmid provided by Tohru Kozasa
T2 sequence (looked up): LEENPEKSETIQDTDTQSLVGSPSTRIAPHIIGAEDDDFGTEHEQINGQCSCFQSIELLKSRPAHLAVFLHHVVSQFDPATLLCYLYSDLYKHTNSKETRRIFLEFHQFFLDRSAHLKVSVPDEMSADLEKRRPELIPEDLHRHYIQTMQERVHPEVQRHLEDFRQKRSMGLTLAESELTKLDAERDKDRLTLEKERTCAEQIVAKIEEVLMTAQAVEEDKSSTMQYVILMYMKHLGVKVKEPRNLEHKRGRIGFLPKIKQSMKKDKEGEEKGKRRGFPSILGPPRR

pulldown:load ratio, percent of myc-Gα12^QL [1]: ~86%
pulldown:load ratio, percent of myc-Gα12^QL [2]: ~18%
B1: myc-Gα12^QL Glu^31/33Arg (natural protein, UniProt P27600 1-379, looked up)
chain: MSGVVRTLSRCLLPAEAGARERRAGAARDARRRARRRSRDIDALLARERRAVRRLVKILLLGAGESGKSTFLKQMRIIHGREFDQKALLEFRDTIFDNILKGSRVLVDARDKLGIPWQHSENEKHGMFLMAFENKAGLPVEPATFQLYVPALSALWRDSGIREAFSRRSEFQLGESVKYFLDNLDRIGQLNYFPSKQDILLARKATKGIVEHDFVIKKIPFKMVDVGGLRSQRQKWFQCFDGITSILFMVSSSEYDQVLMEDRRTNRLVESMNIFETIVNNKLFFNVSIILFLNKMDLLVEKVKSVSIKKHFPDFKGDPHRLEDVQRYLVQCFDRKRRNRSKPLFHHFTTAIDTENIRFVFHAVKDTILQENLKDIMLQ
notes: Gα12 with Q229L and Glu31 and Glu33 changed to Arg; also called double charge substitution mutant; source: HEK293, transfected, in detergent-soluble extract
